From patent publication US6887468B1 (Board of Regents, The University of Texas System, priority 1999, dated 2005)

Experiments:
[1] = system: Bend3 mouse endothelial cells; ABAE, bovine aortic endothelial cells; HUVEC, human umbilical vein endothelial cells; assay: Direct binding of biotinylated 6-His endostatin to endothelial cells in vitro; assay type: cell-based; conditions: three endothelial cell types
Excerpt: Binding was detected using streptavidin-peroxidase in conjunction with O-phenylenediamine (OPD) and the absorbance read at 490 nm.

[2] = GUS enzymatic activity (cleavage of substrate); assay type: biochemical
Excerpt: The 6-His GUS was pure based upon SDS-PAGE, where it ran as a single band of 75 kDa band. On gel filtration columns, the 6-His GUS runs as a tetramer of about 300 kDa.
The biological activity of each component of the 2C3-GUS conjugate was confirmed.

Molecule	Binding to endothelial cells in vitro [1]	Enzymatic activity of GUS [2]
(Biotinylated 6-His) endostatin: mouse endostatin with N-terminal 6×histidine tag expressed in E. coli, biotinylated (protein, UniProt P39060 1572-1754, looked up, Endostatin biotin label, His6 tag) Endostatin: HSHRDFQPVLHLVALNSPLSGGMRGIRGADFQCFQQARAVGLAGTFRAFLSSRLQDLYSIVRRADRAAVPIVNLKDELLFPSWEALFSGSEGPLKPGARIFSFDGKDVLRHPTWPQKSVWHGSDPNGRRLTESYCETWRTEAPSATGQASSLLGGRLLGQSAASCHHAYIVLCIENSFMTASK	bound in a saturable fashion	
6-His GUS: E. coli β-glucuronidase with N-terminal 6×histidine tag (protein, UniProt P05804 1-603, looked up, His6 tag) Beta-glucuronidase: MLRPVETPTREIKKLDGLWAFSLDRENCGIDQRWWESALQESRAIAVPGSFNDQFADADIRNYAGNVWYQREVFIPKGWAGQRIVLRFDAVTHYGKVWVNNQEVMEHQGGYTPFEADVTPYVIAGKSVRITVCVNNELNWQTIPPGMVITDENGKKKQSYFHDFFNYAGIHRSVMLYTTPNTWVDDITVVTHVAQDCNHASVDWQVVANGDVSVELRDADQQVVATGQGTSGTLQVVNPHLWQPGEGYLYELCVTAKSQTECDIYPLRVGIRSVAVKGEQFLINHKPFYFTGFGRHEDADLRGKGFDNVLMVHDHALMDWIGANSYRTSHYPYAEEMLDWADEHGIVVIDETAAVGFNLSLGIGFEAGNKPKELYSEEAVNGETQQAHLQAIKELIARDKNHPSVVMWSIANEPDTRPQGAREYFAPLAEATRKLDPTRPITCVNVMFCDAHTDTISDLFDVLCLNRYYGWYVQSGDLETAEKVLEKELLAWQEKLHQPIIITEYGVDTLAGLHSMYTDMWSEEYQCAWLDMYHRVFDRVSAVVGEQVWNFADFATSQGILRVGGNKKGIFTRDRKPKSAAFLLQKRWTGMNFGEKPQQGGKQ		enzymatically active
